Experimental data from patent US20040191840A1.

Columns and labels:
[1] = molecular target: T1, natural human type I interferon receptor (IFN-R) on the surface of human cells (human) (UniProt P17181); assay: inhibition of binding of 125I-IFN alpha 2 (100 pM) to Daudi cells, 4 C; competitor: labelled IFN alpha 2
T1 sequence: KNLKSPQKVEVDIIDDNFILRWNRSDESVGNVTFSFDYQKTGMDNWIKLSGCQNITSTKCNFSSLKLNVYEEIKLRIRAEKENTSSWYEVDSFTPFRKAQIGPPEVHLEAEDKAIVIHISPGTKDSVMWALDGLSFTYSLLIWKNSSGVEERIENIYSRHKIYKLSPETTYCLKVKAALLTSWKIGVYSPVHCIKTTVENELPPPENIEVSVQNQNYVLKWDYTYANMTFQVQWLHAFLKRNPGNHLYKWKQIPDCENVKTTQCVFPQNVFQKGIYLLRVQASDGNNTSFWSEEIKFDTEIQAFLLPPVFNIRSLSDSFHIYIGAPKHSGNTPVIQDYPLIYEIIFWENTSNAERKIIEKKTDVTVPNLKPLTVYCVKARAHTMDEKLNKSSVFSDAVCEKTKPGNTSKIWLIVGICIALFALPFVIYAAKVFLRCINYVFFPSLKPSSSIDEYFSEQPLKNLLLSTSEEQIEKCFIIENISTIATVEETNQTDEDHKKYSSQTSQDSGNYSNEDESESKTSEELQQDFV

[2] = molecular target: T1, natural human type I interferon receptor (IFN-R) on the surface of human cells (human); assay: inhibition of binding of 125I-IFN alpha 2 (100 pM) to K562 cells, 4 C; competitor: labelled IFN alpha 2
[3] = molecular target: T1, natural human type I interferon receptor (IFN-R) on the surface of human cells (human); assay: inhibition of binding of 125I-IFN alpha 2 (100 pM) to Ly28 cells, 4 C; competitor: labelled IFN alpha 2
[4] = molecular target: T1, natural human type I interferon receptor (IFN-R) on the surface of human cells (human); assay: inhibition of binding of 125I-IFN alpha 2 (100 pM) to HL60 cells, 4 C; competitor: labelled IFN alpha 2

B1: monoclonal antibody 64G12 (antibody, from another filing, IgG1, V domains shown)
VH: QVTLKESGPGILKPSQTLSLTCSFSGFSLSTSGMGIGWIRQPSGKGLEWLAHIWWDDDKYYNPSLKSQLTISRDTSTNQVFLNITSVDTVDTATYYCGRNYYPYDAWFDYWGQGTLVTVS
VL: EIVLTQSPTTMAASPGEKITITCSASSSINSNHLHWYQQKPGFSPKVLIYRTSILASGVPTRFSGSGSGTSYSLTIGTMEAEDVATYYCQQGSNIPFTFGSGTELEIKR
[1]
  IC50: 0.4 µg/mL
[2]
  IC50: 0.4 µg/mL
[3]
  IC50: 60 µg/mL
[4]
  IC50: 11 µg/mL
